{
  "source": "patent US7179646B2",
  "about": "“Gene expression using T cell factor responsive element” (Innovata PLC, priority 2000, dated 2007)",
  "key": {"[1]": {"system": "primary human hepatocytes, dermal fibroblasts and endothelial cells", "test": "Beta-galactosidase expression in infected cultured primary human cells", "type": "cell-based", "conditions": "48 h after infection", "method": "Primary human dermal fibroblasts were isolated from punch biopsy samples from healthy volunteers and maintained as above. HUVEC cells were obtained from Promocell (Heidelberg, Germany) and maintained in Endothelial Growth Medium plus Supplement Mix (Promocell). Primary hepatocytes were maintained in Williams medium with added antibiotics, glutamine, insulin and hydrocortisone.\nAfter washing cells with PBS, cells were fixed in 0.05% glutaraldehyde in PBS for 10 min at RT. Following further washing in PBS, cells were incubated cells the following solution and incubated at 37° C. X-gal solution: 400 μl 500 mM K4Fe(CN)6, 400 μl 500 mM K3Fe(CN)6, 100 μl 2 mM MgCl2, 250 μl 40 mg/ml X-Gal in DMF and 8.85 ml PBS.\n(§1) Expression of β-galactosidase was measured for quantitative graphical presentation by means of the Galacto-Light system (Tropix Inc, Applied Biosystems, Foster City, Calif., U.S.A.)"}, "[2]": {"system": "freshly excised colorectal cancer tissue and attached liver tissue", "test": "Ex vivo transduction of freshly excised colorectal tumour samples, X-gal staining", "parameters": "species or system human", "method": "Freshly excised tumour tissue was extensively washed (at least 10 minutes duration) under aseptic conditions with 20 ml of Earl's MEM containing 10% FCS, 150 μg/ml penicillin, 250 μg/ml streptomycin, 10 μg/ml tetracycline, 100 μg/ml amikacin, 150 µg/ml chloramphenicol and 100 μg/ml gentamycin and stored at 4° C. overnight in medium containing 10% FCS. After removal of fat and grossly and suspected necrotic tissue, 2–3 mm^3 samples were prepared and placed individually into wells of a 96-well plate. Samples (in quadruplicate) were incubated in 150 μl of serum-free medium containing, 1.0×10^10 virus particles or in medium alone for 4 h in a CO2 incubator. The medium was then replaced with EMEM containing 10% FCS and the samples incubated for a further 44 h to allow gene expression to proceed. β-galactosidase expression was visualised after fixation of the tumour samples in 2% paraformaldehyde/PBS for 2 h at 4° C. and washing with PBS by overnight incubation in X-gal staining solution at 37° C."}, "[3]": {"system": "HeLa cells", "test": "Transient transfection luciferase reporter assay in HeLa", "type": "cell-based, human", "method": "(§2) HepG2, SW480 and HeLa were seeded the day before transfection at densities of 2.5×10^5, 1.5×10^5 and 6.0×10^4 cells per 6-well respectively. The next day, a mixture of CL22 peptide ([…] (SEQ ID NO:15) (described in International Patent Application WO 98/35984)) and plasmid DNA (2:1 ratio, μg:μg) was prepared in a final volume of 100 μl in HBS (10 mM Hepes pH 7.4, 150 mM NaCl; Sigma) and incubated at RT for 30–45 min before addition of 0.9 ml of “RAC” solution (0.1% human albumin (BPL, UK), 120 μM chloroquine (Sigma) in RPMI medium (Sigma). The transfection solution was then added to cells after washing them once with PBS and incubated with the cells for 4–5 hours before replacement with 2 ml of fresh complete medium. After two days, cells were washed once with PBS and then incubated for 10 min at RT in 200 μl lysis buffer (10 mM sodium phosphate pH 7.8, 8 mM MgCl2, 1 mM EDTA pH 8.0, 1% Triton X-100 and 15% glycerol). After centrifugation, an aliquot of the supernatant was assayed for luciferase activity with luciferase assay buffer (0.1 mM luciferin, 0.44 mM ATP in lysis buffer) using a luminometer (Lumat LB 9501, Berthold, Germany). Activity was normalised using the protein content of each sample (BCA, Pierce)."}, "[4]": {"system": "SW480 cells", "test": "Transient transfection luciferase reporter assay in SW480", "type": "cell-based, human", "method": "as §2"}, "[5]": {"system": "HepG2 cells", "test": "Transient transfection luciferase reporter assay in HepG2", "type": "cell-based, human", "method": "as §2"}, "[6]": {"system": "293 and PerC6 cells", "test": "LacZ expression in adenovirus helper cell lines", "type": "cell-based, human", "method": "as §1"}},
  "data": [
    {"molecule": "5merTcf-SV40: Artificial promoter of 5 active Tcf sites upstream of the basal SV40 promoter; renamed CTP1 (nucleic acid) antisense: TTGAGATGCAGATCGCAGATCTGATAAAGGTGCATTTAGAGATCAAAGGTAGGACTCTTGATCAAAGGACTGAATTCCTTGATCAAAGGTGCATTTAGAGATCAAAGGTAGGACTCTTTGATCAAAGGGACTAGTAAGCTTGCTAGCACGCGTAAGAGCTCGGTACC", "values": [
      {"measurement": "beta-galactosidase expression", "setting": "[1]", "result": "very low levels of beta-galactosidase expression"},
      {"measurement": "colorectal metastases permissive for high-level expression", "setting": "[2]; 5 metastases examined", "result": "all 5 colorectal metastases examined were permissive"},
      {"measurement": "primaries weakly or non-permissive for promoter activity", "setting": "[2]; of 10 primaries", "result": 3},
      {"measurement": "luciferase reporter activity in HeLa", "setting": "[3]; Example 6", "result": "shows a background activity in HeLa cells"},
      {"measurement": "luciferase activity compared to SV40 promoter alone", "setting": "[3]; beta-catenin not deregulated", "result": "not more active than the SV40 promoter alone"},
      {"measurement": "activity relative to CMV enhancer/promoter", "setting": "[4]; SW480", "result": "about 80%"},
      {"measurement": "luciferase reporter activity in SW480", "setting": "[4]; SW480, Example 6", "result": "highly active in SW480, here comparable to CMV"},
      {"measurement": "induction ratio", "setting": "[4]; SW480, relative to SV40 promoter set as 1", "result": 44.2},
      {"measurement": "inducibility in SW480 compared to HeLa", "setting": "[4]; SW480 vs HeLa", "result": "30–60 fold"},
      {"measurement": "activity relative to CMV enhancer/promoter", "setting": "[5]", "result": "even more active than CMV"},
      {"measurement": "induction ratio", "setting": "[5]; relative to SV40 promoter set as 1", "result": 18},
      {"measurement": "LacZ expression compared to CMV promoter", "setting": "[6]; 293 and PerC6, MOI 100, 30 h post-infection", "result": "significantly lower than that driven by the CMV promoter"},
      {"measurement": "fold more active in PerC6 than in 293 cells", "setting": "[6]; PerC6 vs 293", "result": "approximately 3 fold"}
    ]},
    {"molecule": "TcfC-E1BTATA: Luciferase reporter with TcfC arrangement of 5 Tcf sites and E1BTATA box (nucleic acid) antisense: TACCAACAGTACCGGAATGCCAAGCTAGCTTTTTAGCTTCCTTAGCTCCTGAAAATCTCGCCAAGCTGATGAATTCGAGCTGGCGCATTATATACCCTCTGATAAAGGTGCATTTAGAGATCAAAGGTATGATCAAAGGACTTGATCAAAGGTGAGATCAAAGGTATTGATCAAAGGACTAGAGCTTACTTAGATCGCAGATCTCGAGCCCGGGCTAGCACGCGTAAGAGCTCGGTACCTATCG", "values": [
      {"measurement": "level of reporter gene expression among Tcf-E1BTATA arrangements", "setting": "[4]; SW480, E1BTATA combinations", "result": "highest level of reporter gene expression"}
    ]}
  ]
}
